Paper PMC10454854, “Structural and Biochemical Analysis of the Recombination Mediator Protein RecR from Campylobacter jejuni” (International Journal of Molecular Sciences, 2023)

T1: cjRecR (Campylobacter jejuni, UniProt Q9PN35 1-190)
T1 sequence: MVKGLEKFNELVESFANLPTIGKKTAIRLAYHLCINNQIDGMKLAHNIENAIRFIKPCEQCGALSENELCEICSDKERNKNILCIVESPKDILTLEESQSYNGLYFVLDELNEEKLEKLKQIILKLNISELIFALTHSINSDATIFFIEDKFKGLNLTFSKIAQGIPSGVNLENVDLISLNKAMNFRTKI

B1: Campylobacter jejuni RecR (natural protein, UniProt Q9PN35 1-190, looked up)
chain: T1 sequence
notes: RecR of Campylobacter jejuni subsp. jejuni (ATCC 33291), residues 1-190; cloned by PCR from genomic DNA; Expressed from a pET49b variant with an N-terminal hexahistidine tag and a thrombin site; Residues 1-189 are seen in the structure; also called cjRecR; source: E. coli BL21 (DE3), purified (Ni-NTA, thrombin cleavage, Mono Q anion exchange); not shown: His6, N-terminal, cleaved

Columns and labels:
[1] = biological target: the molecule itself; assay: SEC; cjRecR alone (~300 μg in 300 μL), Superdex 200 10/300, 20 mM Tris pH 8.0, 150 mM NaCl, 5 mM βME; size against gel-filtration standards
[2] = biological target: the molecule itself; assay: crystal structure; crystal of cjRecR (residues 1-190), four subunits in the asymmetric unit; sitting drop, 18 °C, 17% ethanol, 0.1 M Hepes pH 7.5, 0.25 M magnesium chloride; 2.6 Å
cjRecR = biological target: T1, cjRecR; assay: fluorescence polarization; Fluorescence polarization: 0.8 nM fluorescein 40-mer ssDNA, protein up to 100 uM, one-site fit; buffer, salt, pH and temperature not stated; settings: protein: recombinant; tags: His6 tag removed with thrombin; chain copies: 4; single strand

| Binder | stoichiometry N [1] | stoichiometry N [2] | Kd (cjRecR) [µM] |
| --- | --- | --- | --- |
| B1 | 2 | 4 | – |
| TTATAGGCATATAGGAGTAATTTTCTTGGGCTATGCAGTA (ssDNA) [40-mer ssDNA] | – | – | 6.8 |
